The values that follow come from article PMC8350011, “Interactions between semaphorins and plexin–neuropilin receptor complexes in the membranes of live cells” (The Journal of Biological Chemistry, 2021).

The stoichiometry N is the number of molecules, sites or subunits per partner or assembly.

Assay in all cases: PIE-FCCS (pulsed-interleaved excitation fluorescence cross-correlation spectroscopy); single live Cos-7 cells co-expressing eGFP and mCherry fusions, peripheral membrane, no exogenous ligand; 85 to 1245 molecules/μm^2; fraction correlated (fc): median below 0.09 monomer, 0.09-0.17 dimer, above 0.17 higher oligomers (homotypic)
Data set [1] addresses T1, plexin A4 (human, UniProt Q9HCM2 24-1894).
T1 construct: Two constructs (eGFP and mCherry fusions); The N1 vectors probably put the fluorescent protein at the C-terminus; also called plexin A4-eGFP; plexin A4-mCh; source: Cos-7, transiently transfected, in the membrane of live cells
The note with it: partners not purified.

Data set [2] deals with T2, plexin A4ΔSema (human, UniProt Q9HCM2 24-1894, deletes residues 39 to 506).
T2 construct: also called plexin A4ΔSema-eGFP; plexin A4ΔSema-mCh; source: Cos-7, transiently transfected, in the membrane of live cells
T2 sequence (looked up): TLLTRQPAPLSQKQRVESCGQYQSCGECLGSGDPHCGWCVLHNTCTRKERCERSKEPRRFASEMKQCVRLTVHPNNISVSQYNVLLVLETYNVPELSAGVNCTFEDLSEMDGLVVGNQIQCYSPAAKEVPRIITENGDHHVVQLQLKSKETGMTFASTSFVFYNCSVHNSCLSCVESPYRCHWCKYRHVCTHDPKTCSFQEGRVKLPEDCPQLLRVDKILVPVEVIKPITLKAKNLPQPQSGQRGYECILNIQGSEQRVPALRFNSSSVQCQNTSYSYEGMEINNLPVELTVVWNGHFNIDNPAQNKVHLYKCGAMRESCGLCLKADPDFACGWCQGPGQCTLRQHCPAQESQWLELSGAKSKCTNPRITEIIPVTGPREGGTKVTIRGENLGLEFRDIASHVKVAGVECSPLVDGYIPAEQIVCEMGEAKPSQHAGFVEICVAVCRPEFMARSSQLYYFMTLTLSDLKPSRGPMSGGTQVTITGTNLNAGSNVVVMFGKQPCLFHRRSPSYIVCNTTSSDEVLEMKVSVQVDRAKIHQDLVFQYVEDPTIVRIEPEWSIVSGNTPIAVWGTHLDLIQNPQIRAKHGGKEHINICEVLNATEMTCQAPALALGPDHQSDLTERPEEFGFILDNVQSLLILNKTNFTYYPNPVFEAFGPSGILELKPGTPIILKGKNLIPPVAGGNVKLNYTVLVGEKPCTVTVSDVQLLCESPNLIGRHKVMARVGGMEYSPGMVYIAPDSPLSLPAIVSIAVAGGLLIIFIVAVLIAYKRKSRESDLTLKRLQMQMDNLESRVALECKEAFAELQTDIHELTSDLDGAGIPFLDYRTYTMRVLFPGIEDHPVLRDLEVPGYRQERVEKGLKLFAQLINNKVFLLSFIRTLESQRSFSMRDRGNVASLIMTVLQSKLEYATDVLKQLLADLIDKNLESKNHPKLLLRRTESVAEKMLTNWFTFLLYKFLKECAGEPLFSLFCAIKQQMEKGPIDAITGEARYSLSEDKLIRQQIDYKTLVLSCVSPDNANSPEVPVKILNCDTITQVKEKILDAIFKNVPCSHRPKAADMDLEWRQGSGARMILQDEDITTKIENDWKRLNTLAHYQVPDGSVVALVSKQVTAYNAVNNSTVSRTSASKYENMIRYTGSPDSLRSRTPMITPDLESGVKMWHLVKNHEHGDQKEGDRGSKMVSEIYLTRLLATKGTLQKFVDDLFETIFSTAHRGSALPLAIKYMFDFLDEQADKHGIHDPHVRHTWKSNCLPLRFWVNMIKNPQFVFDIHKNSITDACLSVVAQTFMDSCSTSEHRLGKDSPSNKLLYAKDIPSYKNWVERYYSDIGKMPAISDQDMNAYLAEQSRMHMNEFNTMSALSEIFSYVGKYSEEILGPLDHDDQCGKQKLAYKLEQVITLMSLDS
The note with it: partners not purified.

Data set [3] deals with the molecule itself.

B1: plexin A2 (receptor, human, UniProt O75051 35-1894, looked up)
chain: MPQFSTFHSENRDWTFNHLTVHQGTGAVYVGAINRVYKLTGNLTIQVAHKTGPEEDNKSCYPPLIVQPCSEVLTLTNNVNKLLIIDYSENRLLACGSLYQGVCKLLRLDDLFILVEPSHKKEHYLSSVNKTGTMYGVIVRSEGEDGKLFIGTAVDGKQDYFPTLSSRKLPRDPESSAMLDYELHSDFVSSLIKIPSDTLALVSHFDIFYIYGFASGGFVYFLTVQPETPEGVAINSAGDLFYTSRIVRLCKDDPKFHSYVSLPFGCTRAGVEYRLLQAAYLAKPGDSLAQAFNITSQDDVLFAIFSKGQKQYHHPPDDSALCAFPIRAINLQIKERLQSCYQGEGNLELNWLLGKDVQCTKAPVPIDDNFCGLDINQPLGGSTPVEGLTLYTTSRDRMTSVASYVYNGYSVVFVGTKSGKLKKIRADGPPHGGVQYEMVSVLKDGSPILRDMAFSIDQRYLYVMSERQVTRVPVESCEQYTTCGECLSSGDPHCGWCALHNMCSRRDKCQQAWEPNRFAASISQCVSLAVHPSSISVSEHSRLLSLVVSDAPDLSAGIACAFGNLTEVEGQVSGSQVICISPGPKDVPVIPLDQDWFGLELQLRSKETGKIFVSTEFKFYNCSAHQLCLSCVNSAFRCHWCKYRNLCTHDPTTCSFQEGRINISEDCPQLVPTEEILIPVGEVKPITLKARNLPQPQSGQRGYECVLNIQGAIHRVPALRFNSSSVQCQNSSYQYDGMDISNLAVDFAVVWNGNFIIDNPQDLKVHLYKCAAQRESCGLCLKADRKFECGWCSGERRCTLHQHCTSPSSPWLDWSSHNVKCSNPQITEILTVSGPPEGGTRVTIHGVNLGLDFSEIAHHVQVAGVPCTPLPGEYIIAEQIVCEMGHALVGTTSGPVRLCIGECKPEFMTKSHQQYTFVNPSVLSLNPIRGPESGGTMVTITGHYLGAGSSVAVYLGNQTCEFYGRSMSEIVCVSPPSSNGLGPVPVSVSVDRAHVDSNLQFEYIDDPRVQRIEPEWSIASGHTPLTITGFNLDVIQEPRIRVKFNGKESVNVCKVVNTTTLTCLAPSLTTDYRPGLDTVERPDEFGFVFNNVQSLLIYNDTKFIYYPNPTFELLSPTGVLDQKPGSPIILKGKNLCPPASGGAKLNYTVLIGETPCAVTVSETQLLCEPPNLTGQHKVMVHVGGMVFSPGSVSVISDSLLTLPAIVSIAAGGSLLLIIVIIVLIAYKRKSRENDLTLKRLQMQMDNLESRVALECKEAFAELQTDINELTSDLDRSGIPYLDYRTYAMRVLFPGIEDHPVLRELEVQGNGQQHVEKALKLFAQLINNKVFLLTFIRTLELQRSFSMRDRGNVASLIMTGLQGRLEYATDVLKQLLSDLIDKNLENKNHPKLLLRRTESVAEKMLTNWFAFLLHKFLKECAGEPLFMLYCAIKQQMEKGPIDAITGEARYSLSEDKLIRQQIEYKTLILNCVNPDNENSPEIPVKVLNCDTITQVKEKILDAVYKNVPYSQRPRAVDMDLEWRQGRIARVVLQDEDITTKIEGDWKRLNTLMHYQVSDRSVVALVPKQTSSYNIPASASISRTSISRYDSSFRYTGSPDSLRSRAPMITPDLESGVKVWHLVKNHDHGDQKEGDRGSKMVSEIYLTRLLATKGTLQKFVDDLFETLFSTVHRGSALPLAIKYMFDFLDEQADRHSIHDTDVRHTWKSNCLPLRFWVNVIKNPQFVFDIHKGSITDACLSVVAQTFMDSCSTSEHRLGKDSPSNKLLYAKDIPSYKSWVERYYADIAKLPAISDQDMNAYLAEQSRLHAVEFNMLSALNEIYSYVSKYSEELIGALEQDEQARRQRLAYKVEQLINAMSIES
notes: Two constructs (pEGFP-N1 and pmCh-N1, EcoR1 and Kpn1 sites); the N1 vectors probably put the fluorescent protein at the C-terminus; also called plexin A2-eGFP; plexin A2-mCh; source: Cos-7, transiently transfected, in the membrane of live cells
In the case of B1, the “median fraction correlated (fc)” value in data set [1] amounted to 0.08; in data set [2] it was 0.23; in data set [3] it was 0.09. The “stoichiometry N” value in data set [3] was found to be 2.
